The values below come from patent publication US20240279344A1 (CDR LIFE, published 2024).

Residue numbers refer to the chain shown, from its start.

To fix the notation:
B1: M1335 (antibody, V domains shown)
VH: EVQLLESGGGSVQPGGSLRLSCTVSGFSLSNYAMSWVRQAPGKGLEWIGIVSSGGTTYYADSVKGRFTISKDTSKNTVYLQMNSLRAEDTASYYCAKDLYYGPSTYFVANLWGQGTSVTVSS
VL: SYELTQPPSVSVSPGQTASITCTADTLSRSYASWYQQKPGQSPVLVIYRDTSRPSGIPERFSGSNSGNTATLTISGTQAMDEADYYCATRPSSGSNFQLFGGGTKLTVL
notes: Variant with the HCDR2 motif SWA replaced by DSV
B2: M1342 (antibody, V domains shown)
VH: EVQLLESGGGSVQPGGSLRLSCTVSGFSLSNYAMSWVRQAPGKGLEWIGIVSSGGTTYYADSVKGRFTISKDTSKNTVYLQMNSLRAEDTASYYCAKDLYYGPNTDYSAANLWGQGTSVTVSS
VL: B1 VL with L99A
notes: as for B1
B3: M0739 (VHH)
VHH: EVQLVESGGGSVQPGGSLRLSCAASGFTFSRSTMSWVRQAPGKGLEWVSSISGSGGVTTYTTSVKGRFTISRDNAKNLMYLQMNSLNPEDTAVYYCANGDNRGPGTQVTVSS
notes: Llama-derived VHH; detected with anti-VHH (ELISA) or anti-Flag (flow)
B4: M0743 (VHH)
VHH: EVQLVESGGGLVQPGGSLRLSCVASGFTFSWYTMNWVRQAPGKGFEWVASIGSGGTPTTYRESVKGRFTISRDNAKSTLYLQMNSLKPEDTAVYHCENGQARGQGTQVTVSS
notes: as for B3
B5: M0747 (VHH)
VHH: EVQLVESGGGLAQAGGSLRVSCVASGRPFTKYAWGWFRQAPGKAREFVATITWDGGKTDYADSVKGRFTISKDSAENSIYLQMNSLKPEDTAVYYCAADRNYCVGHRCYVRPDDYDYWGQGTQVTVSS
notes: as for B3
B6: M0709 (Fab, V domains shown)
VH: QSVKESGGRLVTPGTPLTLTCTVSGFSLSNYAMSWVRQAPGKGLEYIGIVSSGGTTYYASWAKGRFTISKTSTTVDLKITSPTTEDTATYFCAKDLYYGPTTYSAFNLWGQGTLVTVSS
VL: SELVLTQPQSVSGSLGQTVSISCKRARDNIEDYYVHWYQQHPGKTPTIVIHKDDQRPSGVPDRFSGSIDSTSNSASLTITGLLAEDEADYFCQSFDNDASPVFGGGTQLTVTG
B7: M0763 (Fab, V domains shown)
VH: B6 VH
VL: SELVLTQPASVQVNLGQTVSLTCTADTLSRSYASWYQLKPGQAPVLLIYRDTSRPSGVPDRFSGSSSGNTATLTISGAQAGDEGDYVCATSDGSGSNFQLFGGGTQLTVTG
notes: also called M763; parental M0763 antibody
B8: M0742 (VHH)
VHH: EVQLVESGGGLVQPRGSLRLSCAASGFTFSNSGMSWVRQAPGKGLEWVSSISSGGSSTTYLDSVKGRFTISRDNAKNTLYLQMNSLKPEDTAVYYCSWADLRGRGTQVTVSS
notes: as for B3
B9: M0766 (Fab, V domains shown)
VH: PEQLEESGGGLVTPGGVLTLTCTASGFSFSSYGVNWVRQAPGKGLEWIGFIFGDGTTYYANWAKGRFTISKTSTTVDLKMTSPTTEDTATYFCARDGYGGYDYIINLWGQGTLVTVSS
VL: AQVLTQTPASVSAAVGGTVSISCQSSQSVVNNNWLAWYQQKPGQPPKLLIYKASTLESGVPSRFKGSGSGTQFTLTISGVQADDAATYYCLGEFSCSSADCHAFGGGTELEILR
B10: M0762 (Fab, V domains shown)
VH: QSVKESGGRLVTPGTPLTLTCTASGFTISSSAISWVRQAPGKGLEYIGIIRSGGTTDYASWAKGRFAISKTSTTVDLKITSPTTEDTATYFCARDPPYITSTYFDLWGQGTLVTVSS
VL: SELVLTQPQSVSGSLGQTVSISCKRARDSVESYDVHWYQQHPGKTPTIVIYKDDQRPSGVPDRFSGSIDSTSNSASLTITGLLAEDEADYFCQSFDGDAVVFGGGTQLTVTG

The target in one assay is T1, HLA-A2/MAGE-A4 complex, recombinant (HLA-A*02:01 extracellular domain, human b2m, MAGE-A4 peptide 230-239 …) (human, UniProt P04439 25-299 at identity 0.94); P61769 21-119).
T1 construct: also called MAGE-A4 pMHC; MAGE-A4/HLA-A2 complex
As to the kind of experiment: SPR. (In general: SPR reads the build-up and loss of mass on a sensor chip optically.)
Consider B1, for which the binding result is recorded as “binds”.

B2: the binding result is reported as “binds”.

A further assay addresses T2, control peptide 1 (…) displayed by HLA-A2 on T2 cells (human).
T2 construct: whole, on cells; also called Ctrl.1
As to the kind of experiment: flow cytometry on peptide-pulsed T2 cells, relative MFI (binding over peptide loading). The procedure: (§1) TAP-deficient T2 cells were pulsed with HLA-A2-restricted peptides (MAGE-A4 or control peptides) and incubated with MAGE-A4 binders followed by fluorophore-labeled specific detection antibodies and analysis by flow cytometry.
(§2) Briefly, T-B hybrid T2 cells were incubated with serum-free RPMI1640 medium containing MAGE-A4 or control peptides. […] Peptide loading efficiency was verified by using the ratio between median fluorescent intensity (MFI) of HLA-A2-binding antibody BB7.2 on peptide loaded T2 cells and MFI of unloaded T2 cells (>1). T2 cells were incubated with each of the specific antibodies followed by fluorophore-labeled detection antibodies (anti-kappa light chain or anti-Flag). The cells were fixed and fluorescence was measured by flow cytometry.
Background: Flow cytometry measures light scatter and fluorescence of single cells or particles in a stream.
For the molecule B3, the binding result is “no binding”.

For the molecule B4, the binding result is listed as “no binding”.

Turning to B5, the binding result is on record as “no binding”.

For B6, the binding result was “binds”.

With B7, the binding result is given as “no binding”.

With B8, the binding result is recorded as “no binding”.

The target of the next assay is T3, control peptide 2 (…) displayed by HLA-A2 on T2 cells (human).
T3 construct: whole, on cells; also called Ctrl.2
The description is as above. The method, then:
as §1, §2
On to B3, for which the binding result is given as “binds”.

Consider B4, for which the binding result is “no binding”.

On to B5, for which the binding result was “no binding”.

As to B6, the binding result is listed as “binds”.

With B7, the binding result is “no binding”.

Turning to B8, the binding result is on record as “binds”.

Another assay deals with T4, control peptide 3 (…) displayed by HLA-A2 on T2 cells (human).
T4 construct: whole, on cells; also called Ctrl.3
The assay is described as above. The method, then: as §1, §2
For the molecule B4, the binding result is on record as “no binding”.

As to B5, the binding result was “no binding”.

In the case of B7, the binding result is on record as “no binding”.

For the next assay, the target named is T1, HLA-A2/MAGE-A4 complex, recombinant …. Description: direct ELISA, plate coated with HLA-A2/MAGE-A4 complex, serial dilution of the antibody. The procedure:
All available hits were evaluated for their ability to bind MAGE-A4/HLA-A2 complex and a control peptide/HLA-A2 complex in a direct binding ELISA assay. […] Briefly, 96 well ELISA plates were coated with purified human MAGE-A4/HLA-A2 complex or control HLA-A2 complex. Serial dilutions of antibody molecules were added to the plate and detected by an anti-kappa light chain-HRP (Invitrogen) or a purified rabbit anti-VHH (QVQ) followed by goat anti-rabbit IgG(H+L) HRP (Southern Biotech). […] 5B.
For B3, the binding result is recorded as “binds”.

Regarding B4, the “EC50 (read off the curve)” value was approximately 0.003 mg/L.

As for B5, the binding result is reported as “binds”.

In the case of B9, the binding result is given as “binds”.

As to B7, the “EC50 (read off the curve)” value is approximately 1 mg/L.

On to B10, for which the binding result is on record as “binds”.

As for B8, the “EC50 (read off the curve)” value is approximately 0.02 mg/L.

As usually defined, the EC50 (read off the curve) is the concentration that produces a half-maximal response.
